Consider one molecule from article PMC5912500.

The assay addresses T1, Wild-type (WT) moesin, P26038.
T1 chain: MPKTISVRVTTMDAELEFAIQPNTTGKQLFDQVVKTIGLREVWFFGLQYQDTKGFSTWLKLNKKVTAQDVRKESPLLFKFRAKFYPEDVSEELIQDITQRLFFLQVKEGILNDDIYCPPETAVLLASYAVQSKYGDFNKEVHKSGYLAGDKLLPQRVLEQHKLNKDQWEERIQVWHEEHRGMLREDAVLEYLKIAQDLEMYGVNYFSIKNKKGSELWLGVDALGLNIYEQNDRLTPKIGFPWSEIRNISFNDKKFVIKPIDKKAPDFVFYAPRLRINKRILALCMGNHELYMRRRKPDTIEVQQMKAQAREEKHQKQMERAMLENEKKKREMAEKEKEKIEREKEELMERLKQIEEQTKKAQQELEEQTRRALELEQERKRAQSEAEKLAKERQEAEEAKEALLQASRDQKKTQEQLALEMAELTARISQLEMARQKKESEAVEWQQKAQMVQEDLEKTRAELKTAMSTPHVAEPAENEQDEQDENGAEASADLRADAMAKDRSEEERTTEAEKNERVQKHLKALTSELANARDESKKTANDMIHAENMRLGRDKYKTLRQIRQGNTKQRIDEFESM
Briefly: AUC. To be noted: remark: other sources report otherwise.

B1: Wild-type (WT) moesin, P26038 1-577 (natural protein)
chain: T1 chain
The molecule B1 yielded a percent of the protein as dimers of 29 to 31%.
